# Source: the nanobody polyreactivity screen of Harvey et al. (2022)
# Test: yeast display, Sf9 membrane polyspecificity reagent, FACS + sequencing; frameworks hold sequencing errors
# Method in brief: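 Synthetic nanobody libraries on Saccharomyces cerevisiae BJ5465 were galactose-induced for 36–48 hours, stained 1 hour at 4 °C with 10% biotinylated, detergent-solubilized Sf9 membrane reagent and enriched on streptavidin microbeads. FACS then separated cells into low and high (top ~1%) gates by anti-HA (expression) and streptavidin (reagent binding) fluorescence. Genes were colony-PCR amplified, MiSeq 2 × 250 sequenced and CDR-length filtered. A clone's polyreactivity label is that of its gate of origin.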
row,Sequence,polyreactivity (PSR sort gate)
1,QVQLVESGGGLVQAGGSLRLSCAASGSIFYKNVMGWYRQAPGKEREFVAAISSSGGSTYYADSVKGRFTISRDNAKNTVYLQMNSLKPEDTAVYYCAATGWGLFRRRYDYWGQGTQVTVSS,low polyreactivity
2,QVQLVESGGGLVQAGGSLRLSCAASGSIFYKYALGWYRQAPGKERELVASITWSDGNTNYADSVKGRFTISRDNAKNTVYLQMNSLKPEDTAVYYCADGGWYPTSRIFDYWGQGTQVTVSS,low polyreactivity
3,QVQLVESGGGLVQAGGSLRLSCAASGSIFYKYAMGWYRQAPGKERELVAAISTSGGSTYYADSVKGRFTISRDNAKNTVYLQMNSLKPEDTAVYYCAKARSYGLGRSYYWGQGTQVTVSS,high polyreactivity
4,QVQLVESGGGLVQAGGSLRLSCAASGSIFYKYMGWYRQAPGKERELVAAITWSGGSTYYADSVKGRFTISRDNAKNTVYLQMNSLKPEDTAVYYCAARDYTRYGYGYWGQGTQVTVSS,high polyreactivity
5,QVQLVESGGGLVQAGGSLRLSCAASGSIFYLYAMGWYRHAPGKERELVATITVSGSSTYADSVKGRFTISRDNAKNTVYLQMISLKPEDTAVYYCAADGGRQVYTQLYDYWGQGTQVTVSS,low polyreactivity
6,QVQLVESGGGLVQAGGSLRLSCAASGSIFYLYAMGWYRPAPGKERELVAAISSGGSTYYADSVKGRFTISRDNAKNTVYLQMNSLKPEDTAVYYCNADSYYYPYDYWGQGTQVTVSS,low polyreactivity
7,QVQLVESGGGLVQAGGSLRLSCAASGSIFYLYAMGWYRQAPGKERELVAAINFRGGSTYADSVKGRFTISRDNAKNTVYLQMNSLKPEDTAVYYCAAKADYRMNYWGQGTQVTVSS,high polyreactivity
8,QVQLVESGGGLVQAGGSLRLSCAASGSIFYLYAMGWYRQAPGKERELVARITWSGGRTFYADSVKGRFTISRDNAKNTVYLQMNSLKPEDTAVYYCNARYHGKYDYWGQGTQVTVSS,high polyreactivity
9,QVQLVESGGGLVQAGGSLRLSCAASGSIFYLYAMGWYRQAPGKERELVATISLSSGSTYAASVKGRFTISRDNAKNTVYLQMNSLKPEDTAVDYCAKDLTRWGYNEYDYWGQGTQVSVSS,low polyreactivity
10,QVQLVESGGGLVQAGGSLRLSCAASGSIFYLYTMGWYRQATRKERELVAGISNGDRTYYADSVKGRFTISRDNAKNTVYFQMNSLKPEDTAVYYCAKGWYRIKRNDYWGQGTQVTVAS,low polyreactivity
11,QVQLVESGGGLVQAGGSLRLSCAASGSIFYLYVMGWYRQAPGKERELVAAINWSGSRTYYADSVKGRFTISRDNAKNTVYLQMNSLKPEDTAVYYCNAVRATGQASQEGEYWGQGTQVTVSS,high polyreactivity
12,QVQLVESGGGLVQAGGSLRLSCAASGSIFYNNSKGWYRPAPGKERELVAAISLRGGSTYYADSVKGRFTISRDNAKNTVYLQMNSLKPEDSAVYYCAAVTGARYYPARASRGKFDYWGQGTQVTVSS,high polyreactivity
13,QVQLVESGGGLVQAGGSLRLSCAASGSIFYNYAMGWSRQAPGKERELVAAITANTGSTYYADSVKGRFTISRVNAKNTVYLQMNSLKPEDTAVYYCATTWTIRRYRYSPRLVDYWGQGTQVTVSS,low polyreactivity
14,QVQLVESGGGLVQAGGSLRLSCAASGSIFYNYAMGWYRQAPGKERELVAAISQSGGSTRYADSVKGRFTISRDNAKNTVYVQMNSLKPEDTAVYYCAASRRKGQGSAGFGYWGQGTQVTVSS,high polyreactivity
15,QVQLVESGGGLVQAGGSLRLSCAASGSIFYNYAMGWYRQAPGKERELVAAISSNGGSTYYADSVKGRFTISRDNAKNTVYLQMNSLKPEDTAVYYCAKYLSPGERHSYDYWGQGTQVTVSS,high polyreactivity
16,QVQLVESGGGLVQAGGSLRLSCAASGSIFYNYGMGWYRQAPGKERELVAAIRASGDSTYYADSVKGRFTISRDNAKNTVYLQMNSLKPEDTAVYYCAARPNQSYYGLYFYWGQGTQVTVSS,low polyreactivity
17,QVQLVESGGGLVQAGGSLRLSCAASGSIFYPNAMGWYRQAPGKERELVAAISSSGGTNYADSVKGRFTISRDNAKNTVYLQMNSLKPEDTAVYYCNARDKVRYRYSRMDYWGQGTQVTVSS,low polyreactivity
18,QVQLVESGGGLVQAGGSLRLSCAASGSIFYPNAMGWYRQAPGKERELVAAITTGGSTNYADSVKGRFTISRDNAKNTVYLQMNSLKPEDTAVYYCNARHRYHSYTQPRWKYDYWGQGTQVTVSS,low polyreactivity
19,QVQLVESGGGLVQAGGSLRLSCAASGSIFYPYAMGWYRPAPGKERELVASITINDGSTYYADSVKGRFTISRDNAKNTVYLQMNSLKPEDTAVYYCNVEPVPGFGSEYEYWGQGTQVTVSS,low polyreactivity
20,QVQLVESGGGLVQAGGSLRLSCAASGSIFYPYAMGWYRQAPGKERELVAAIDYSDGSTYYADSVKGRFTISRDNAKNTVYLQMNSLKPEDTAVYYCAADGTYVWGSEEGNYWGQGTQVTVSS,low polyreactivity
21,QVQLVESGGGLVQAGGSLRLSCAASGSIFYPYAMGWYRQAPGKERELVAAIRWRGGNTYYADSVKGRFTFSRDNAKNTVYLQMNSLKPEDTAVYYCAADGKYLQGFGYYYWGQGTQVTVSS,high polyreactivity

row,Sequence,polyreactivity (PSR sort gate)
1,QVQLVESGGGLVQAGGSLRLSCAASGSIFYPYAMGWYRQAPGKERELVAAISSGGTTYYADSVKGRFTISRDNAKNTVYLQMNSLKPEDTAVYYCAAGFYLRAVWMDYWGQGTQVTVSS,high polyreactivity
2,QVQLVESGGGLVQAGGSLRLSCAASGSIFYQNAMGWYRQAPGKEREFVAAIRSSGSSTYYADSVKGRFTISRDNAKNTVYVQMNCLKPEDTAVYYCAADNPGGYRGKVDYWGQGTQVTVSS,high polyreactivity
3,QVQLVESGGGLVQAGGSLRLSCAASGSIFYQYAMGWYRQAPGKERELVAAISRSGGSTYYADSVKGRFTISRDNPKNTVYLQMNSLKPEDTAGYYCAARAVRAAYDYWGQGSQVTVSS,low polyreactivity
4,QVQLVESGGGLVQAGGSLRLSCAASGSIFYQYAMGWYRQAPGKERELVAGITWSGGSTYYADSVKGRFTISRDNAKYTVYLQMNSLKPEDTAVFYCAAQYFWYVYSYDYWGQGTQVTVSS,high polyreactivity
5,QVQLVESGGGLVQAGGSLRLSCAASGSIFYQYAMGWYRQAPGKERELVARIRGSTGTTYYADSVKGRFTFSRDYAKNTVYLQMNSLKPEDNAVYYCNAARYQGRSRFDYWGQGTQVTVSS,high polyreactivity
6,QVQLVESGGGLVQAGGSLRLSCAASGSIFYRNAMGWYRQAPGKERELVAAISSDGSTNYADSVKVRFTISRDNAKNTVYLQMNSLKPEDTAVYYCAAPWTQILDYWGQGTQVTVSS,low polyreactivity
7,QVQLVESGGGLVQAGGSLRLSCAASGSIFYRNAMGWYRQAPGKERELVAAISWSGSRTYYADSVKGRFTISRDNAKNTVYLQMNSLKPEDTAVYYCNRQYNQWIHYYYRMDYWGQGTQVTVSS,high polyreactivity
8,QVQLVESGGGLVQAGGSLRLSCAASGSIFYRYAMGWYRQAPGKERELVAAISDRSGSTYYADSVKGRFTISRDNAKNTVYLQMNSLKPEDTAVYYCAAAYNYRAAGYGLSRYYYWGQGTQVTVSS,high polyreactivity
9,QVQLVESGGGLVQAGGSLRLSCAASGSIFYRYAMGWYRQAPGKERELVAAISSNGVSTYYADSVKGRFTISRDNAKNTVYLQMNSLKPEDTAVYYCARDVYASPRLYTSRYNYWGQGTQVTVSS,low polyreactivity
10,QVQLVESGGGLVQAGGSLRLSCAASGSIFYRYAMGWYRQAPGKERELVASISKSGGSTYYADSVKGRFTISRDNAKNTVYLQMNSLKPEDTAVYYCAKKPRGTVYRFDYWGQGTQVTVSS,high polyreactivity
11,QVQLVESGGGLVQAGGSLRLSCAASGSIFYRYAMGWYRQAPGKERELVASISSGVSTNYADSVKGRFTISRDNAKNTVYLQLNSLKPEDTAVYYCAVRHRYTRAYWGRDYWGQGTQVTVSS,low polyreactivity
12,QVQLVESGGGLVQAGGSLRLSCAASGSIFYRYAMGWYRQAPGKERELVATISSGGRTYYADSVKGRFTISRDNAKNTVYLQMNSLKPEVTAVYYCAAKRFSSPYWEYYWGQGTQVTVSS,high polyreactivity
13,QVQLVESGGGLVQAGGSLRLSCAASGSIFYRYAMGWYRQAPGKVRELVAAINNGGGRTYADSVKGRFTISRDNAKNTVYFQMNSLKPEDTAVYYCAKRTSRLAPYDYWGQGTQVTVSS,high polyreactivity
14,QVQLVESGGGLVQAGGSLRLSCAASGSIFYRYAMGWYRQGPGKERELVAGITRGGSTNYADSVKGRFTISRDNAMNTVYLQMNSLKPEDTAVYYCAARSYVYVHYYYWGQGTQVTVSS,high polyreactivity
15,QVQLVESGGGLVQAGGSLRLSCAASGSIFYRYSMGWYRQAPGKEREFVAAITWSGGSTYYADSVKGRFTISRDNAKNTVYLQMNSLKPEDTAVYYCAKDSGSYRVGIYEPFPYGYWGQGTQVTVSS,low polyreactivity
16,QVQLVESGGGLVQAGGSLRLSCAASGSIFYSNAMGWSRQAPGKEREFVAAISAGGGSTYYADSVKGRFTISRDNATNTVYLQMISLKPEDTAVYYCAADYFYPYYGAMDYWGQGTQVTVSS,low polyreactivity
17,QVQLVESGGGLVQAGGSLRLSCAASGSIFYSNAMGWYRQAPGKEREFVAAISAGGGSTYYADSVKGRFTISRDNAKNTVYLQMNSLKPEDTAVYYCAATDEYYIQVWFPYDYWGQGTQVTVSW,low polyreactivity
18,QVQLVESGGGLVQAGGSLRLSCAASGSIFYSNAMGWYRQAPGNERELVAAITYRGGRTYYADSVKGRFTISRDNAKNTVYLQKNSLKPEDTAVDYCAKVVRAQALDSIYNGRYDYWGEGTQVTVSS,low polyreactivity
19,QVQLVESGGGLVQAGGSLRLSCAASGSIFYSNAMVWYRQAPGKEREFVAAISTSAGRTYYADSVKGRFTISRDNAKNKVYLQLNSLNPEDTEVYYCAAGTNYGKLRIRFDYWGQGTQVTVSS,low polyreactivity
20,QVQLVESGGGLVQAGGSLRLSCAASGSIFYSNTMGWYRQAPGKERELVAAISSSSGRTYYADSVKGRFTISRDNAKNTGFLQMNSLKPEDTAVYYCARRYGWGQGTQVTVSS,high polyreactivity
